Reference: paper PMC11243337, “Self-Responsive Fluorescence Aptasensor for Lactoferrin Determination in Dairy Products”

Molecular target: Lactoferrin (Lf) (bovine (cow's milk), UniProt P24627 20-708)
Assay: fluorescence quenching (6-FAM); Tris-EDTA, no added ions; Lf 5 and 40 ug/mL; Tris-EDTA pH 8.0, no added salt, 25 C, 10 min; 90 uL of 50 nM aptamer + 100 uL Lf (0-100 ug/mL); Ex 485/Em 528 nm. Specificity section (alpha-La, beta-Lg, BSA)
Conditions: protein: commercial; label: 3'-6-FAM

Lactoferrin (Lf), sequence (P24627 20-708): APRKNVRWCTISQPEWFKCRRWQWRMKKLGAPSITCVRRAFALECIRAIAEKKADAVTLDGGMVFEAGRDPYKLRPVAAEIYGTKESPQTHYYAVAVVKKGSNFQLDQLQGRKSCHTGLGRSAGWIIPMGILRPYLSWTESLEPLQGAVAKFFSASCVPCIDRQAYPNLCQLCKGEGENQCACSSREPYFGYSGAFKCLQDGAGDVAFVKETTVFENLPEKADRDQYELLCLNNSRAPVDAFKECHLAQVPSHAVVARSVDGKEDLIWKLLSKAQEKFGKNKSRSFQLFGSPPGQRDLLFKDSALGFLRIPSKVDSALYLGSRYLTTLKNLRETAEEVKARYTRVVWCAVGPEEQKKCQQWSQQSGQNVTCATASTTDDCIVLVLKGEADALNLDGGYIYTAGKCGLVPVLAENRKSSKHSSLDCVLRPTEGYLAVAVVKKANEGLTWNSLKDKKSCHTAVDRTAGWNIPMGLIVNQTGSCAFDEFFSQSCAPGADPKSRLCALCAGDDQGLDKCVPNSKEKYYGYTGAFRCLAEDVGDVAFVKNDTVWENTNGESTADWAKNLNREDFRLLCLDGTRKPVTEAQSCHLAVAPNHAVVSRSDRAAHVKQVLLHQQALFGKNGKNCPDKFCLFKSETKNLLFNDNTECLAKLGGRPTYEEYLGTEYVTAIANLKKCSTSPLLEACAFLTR

Binder: TGGTGCTGCCCCTAGTCTCCGGCTGATAGCTGCTTCTTGG (ssDNA) [Lf aptamer, 3'-6-FAM]
- binding result: binds
